These results are taken from patent publication US20040006018A1 (Genentech, published 2004).

For experiment [1], the target named is T1, Mouse LIF receptor on mouse M1 cells (LIF receptor complex with gp130) (mouse, UniProt P42703 44-1092; Q00560 23-917).
T1 construct: whole, on cells; Endogenous receptor on M1 cells; also called LIFRβ
Briefly: conditioned medium competing for 125I-human LIF binding to M1 cells.

Experiment [2] addresses T2, OSM specific receptor (oncostatin M receptor) on human WI-26 VA4 cells (human, UniProt Q99650 28-979).
T2 construct: whole, on cells; Endogenous receptor on cells; further subunits not described for this assay; also called specific OSM Receptor; WI-26 cells
T2 sequence (looked up): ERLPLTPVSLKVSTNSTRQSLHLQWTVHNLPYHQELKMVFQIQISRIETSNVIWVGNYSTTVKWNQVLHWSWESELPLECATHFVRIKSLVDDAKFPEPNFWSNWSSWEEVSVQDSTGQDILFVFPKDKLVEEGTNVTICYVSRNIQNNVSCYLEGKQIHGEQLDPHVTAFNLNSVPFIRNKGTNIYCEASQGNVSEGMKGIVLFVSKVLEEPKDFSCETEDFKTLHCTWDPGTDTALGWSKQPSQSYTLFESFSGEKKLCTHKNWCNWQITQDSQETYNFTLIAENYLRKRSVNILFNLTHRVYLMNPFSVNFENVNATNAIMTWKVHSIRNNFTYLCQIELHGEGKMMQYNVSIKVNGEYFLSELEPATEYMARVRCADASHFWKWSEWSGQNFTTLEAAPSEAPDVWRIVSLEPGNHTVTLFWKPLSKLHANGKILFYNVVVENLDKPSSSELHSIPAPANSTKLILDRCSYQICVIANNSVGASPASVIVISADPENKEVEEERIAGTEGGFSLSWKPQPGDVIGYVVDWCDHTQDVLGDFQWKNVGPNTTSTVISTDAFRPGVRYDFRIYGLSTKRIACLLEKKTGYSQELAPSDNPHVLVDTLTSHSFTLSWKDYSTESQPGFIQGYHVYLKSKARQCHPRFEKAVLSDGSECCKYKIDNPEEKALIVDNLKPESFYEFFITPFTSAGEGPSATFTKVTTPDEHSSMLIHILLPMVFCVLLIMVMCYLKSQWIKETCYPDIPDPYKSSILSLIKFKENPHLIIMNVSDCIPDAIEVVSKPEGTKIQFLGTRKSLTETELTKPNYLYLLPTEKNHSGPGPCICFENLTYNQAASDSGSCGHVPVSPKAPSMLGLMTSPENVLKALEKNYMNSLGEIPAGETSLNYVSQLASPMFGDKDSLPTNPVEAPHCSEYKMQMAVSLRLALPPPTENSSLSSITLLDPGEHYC
The experiment in a line: competition for 125I-human OSM binding to WI-26 VA4 cells.

Experiment [3] concerns the target T3, Human LIF receptor on human Hela cells (human, UniProt P42702 45-1097).
T3 construct: whole, on cells; Endogenous receptor on cells; other subunits (gp130) not examined on these cells
T3 sequence (looked up): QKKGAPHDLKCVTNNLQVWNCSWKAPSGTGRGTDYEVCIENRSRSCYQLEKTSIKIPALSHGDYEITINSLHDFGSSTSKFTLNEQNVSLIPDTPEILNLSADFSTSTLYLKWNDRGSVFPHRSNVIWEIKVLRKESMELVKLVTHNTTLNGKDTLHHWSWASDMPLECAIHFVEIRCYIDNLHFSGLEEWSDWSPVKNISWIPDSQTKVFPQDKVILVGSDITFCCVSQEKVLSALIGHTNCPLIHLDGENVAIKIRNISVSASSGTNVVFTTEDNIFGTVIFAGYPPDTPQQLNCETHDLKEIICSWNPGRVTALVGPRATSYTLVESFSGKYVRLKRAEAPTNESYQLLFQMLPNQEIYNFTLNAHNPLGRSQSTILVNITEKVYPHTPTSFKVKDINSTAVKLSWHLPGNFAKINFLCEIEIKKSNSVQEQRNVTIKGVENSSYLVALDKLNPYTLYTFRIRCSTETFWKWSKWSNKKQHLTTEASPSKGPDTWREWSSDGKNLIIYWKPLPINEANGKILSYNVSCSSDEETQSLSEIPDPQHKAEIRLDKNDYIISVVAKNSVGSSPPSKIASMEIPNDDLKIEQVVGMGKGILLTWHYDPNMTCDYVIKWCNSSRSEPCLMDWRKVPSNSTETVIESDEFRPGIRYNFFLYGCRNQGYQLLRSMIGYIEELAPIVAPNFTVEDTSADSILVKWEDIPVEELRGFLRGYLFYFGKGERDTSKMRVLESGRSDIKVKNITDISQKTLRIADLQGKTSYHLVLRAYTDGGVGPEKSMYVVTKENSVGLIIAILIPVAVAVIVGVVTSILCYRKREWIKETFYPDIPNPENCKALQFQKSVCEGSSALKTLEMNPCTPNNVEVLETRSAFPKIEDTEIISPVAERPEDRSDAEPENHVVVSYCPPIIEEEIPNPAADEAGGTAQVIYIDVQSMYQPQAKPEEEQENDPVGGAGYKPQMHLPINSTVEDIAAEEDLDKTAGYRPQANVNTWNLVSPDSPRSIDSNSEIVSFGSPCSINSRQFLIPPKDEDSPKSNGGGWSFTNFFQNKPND
Briefly: conditioned medium competing for 125I-human LIF binding to Hela cells.

T1 sequence (Q00560 23-917, one chain of several): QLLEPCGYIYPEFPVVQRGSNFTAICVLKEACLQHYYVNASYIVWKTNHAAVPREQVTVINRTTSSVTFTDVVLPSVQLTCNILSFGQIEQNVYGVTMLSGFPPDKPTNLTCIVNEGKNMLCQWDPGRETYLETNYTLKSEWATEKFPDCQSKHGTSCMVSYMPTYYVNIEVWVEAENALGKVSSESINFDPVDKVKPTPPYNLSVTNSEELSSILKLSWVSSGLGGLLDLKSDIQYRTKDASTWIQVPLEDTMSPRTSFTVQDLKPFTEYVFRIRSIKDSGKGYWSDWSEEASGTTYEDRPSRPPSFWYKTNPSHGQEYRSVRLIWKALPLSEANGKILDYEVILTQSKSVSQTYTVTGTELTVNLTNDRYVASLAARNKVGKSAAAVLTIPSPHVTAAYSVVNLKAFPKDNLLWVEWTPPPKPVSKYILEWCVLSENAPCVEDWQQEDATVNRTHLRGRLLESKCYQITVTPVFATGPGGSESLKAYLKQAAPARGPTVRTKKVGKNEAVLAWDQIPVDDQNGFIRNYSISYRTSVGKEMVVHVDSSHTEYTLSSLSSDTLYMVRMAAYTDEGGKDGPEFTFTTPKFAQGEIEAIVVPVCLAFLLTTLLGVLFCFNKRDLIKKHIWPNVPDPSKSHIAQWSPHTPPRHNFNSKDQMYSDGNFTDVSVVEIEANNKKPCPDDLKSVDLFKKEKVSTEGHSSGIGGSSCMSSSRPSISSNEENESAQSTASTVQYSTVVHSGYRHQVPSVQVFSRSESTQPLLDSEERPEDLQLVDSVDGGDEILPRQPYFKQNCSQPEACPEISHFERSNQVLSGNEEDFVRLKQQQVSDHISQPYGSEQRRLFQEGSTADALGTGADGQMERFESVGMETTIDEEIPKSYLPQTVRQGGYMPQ

B1: Human CT-1 (conditioned medium from human 293 cells transfected with pRK5.hu.CT1) (ligand)
chain: MSRREGSLEDPQTDSSVSLLPHLEAKIRQTHSLAHLLTKYAEQLLQEYVQLQGDPFGLPSFSPPRLPVAGLSAPAPSHAGLPVHERLRLDAAALAALPPLLDAVCRRQAELNPRAPRLLRRLEDAARQARALGAAVEALLAALGAANRGPRAEPPAATASAASATGVFPAKVLGLRVCGLYREWLSRTEGDLGQLLPGGSA
notes: Not purified: tested as clarified conditioned medium (concentrated 10 fold and added at a 3-fold dilution for Hela cells; unconcentrated for WI-26 cells); also called human cardiotrophin-1; hCT-1
As to B1, the values for the binding result in experiment [1], in experiment [2] and in experiment [3] were “binds”, “no binding” and “binds”, respectively.
